Data as given in US6512097.
Like-named read-outs stand apart in the source and are kept apart here.

Assays:
Assay in all cases: SPR BIAcore
[1] = target: T1, c-erbB-2 ECD with a Ser-Gly-His6 C-terminal fusion (UniProt P04626 23-652)
T1 construct: extracellular domain; Expressed from CHO cells, IMAC purified; coupled to a CM5 chip, coated on plates, or biotinylated with NHS-LC-biotin; also called c-erbB-2 extracellular domain; biotinylated c-erbB-2 ECD

[2] = target: T1, c-erbB-2 ECD with a Ser-Gly-His6 …; remark: listed apart in the source
[3] = target: T1, c-erbB-2 ECD with a Ser-Gly-His6 …; remark: listed apart in the source
Procedure: All assays were performed in triplicate. Briefly, […] of radioiodinated sFv was added to 5×10^6 SK-OV cells in the presence of increasing concentrations of unlabeled sFv from the same preparation. After a 30 minute incubation at 20° C., the samples were washed with PBS at 4° C. and centrifuged at 500 g. The amount of labeled sFv bound to the cells was determined by counting the pellets in a gamma counter and the K_a, and K_d were calculated using the EBDA program (V 2.0, G. A. McPherson, 1983). The K_d of all the other isolated sFv were determined using surface plasmon resonance in a BIAcore (Pharmacia). In a BIAcore flow cell, approximately 1400 resonance units (RU) of c-erbB-2 ECD (25 μg/ml in 10 mM sodium acetate, pH 4.5) was coupled to a CM5 sensor chip (Johnsson et al. (1991), supra). Association and dissociation-rates were measured under continuous flow of […] using a concentration range from 50 to 800 nM. Rate constant $kon$ was determined from a plot of (1(dR/dt))/t vs concentration (Karlsson et al. (1991), supra). Rate constant $Hoff$ was determined from the dissociation part of the sensorgram at the highest concentration of sFv analyzed.
Dashes indicate sequence identity. Mutations arising from PCR error and located outside V_H CDR3 are listed under the heading other mutations. F = frequency of isolated scFv. *$koff$ determined from unpurified scFv samples. Underline indicates mutated residue.

[4] = target: T1, c-erbB-2 ECD with a Ser-Gly-His6 …; remark: listed apart in the source

Binder | Kd [2] [nM] | koff [2] [s⁻¹] | Kd [3] [nM] | koff [3] [s⁻¹] | Kd [4] [nM] | koff [4] [s⁻¹] | also measured
C6ML3-9 (scFv, template (wt) of the VH CDR3 libraries; also called C6ML3-9 (wt); C6ML-9) scFv: QVQLLQSGAELKKPGESLKISCKGSGYSFTSYWIAWVRQMPGKGLEYMGLIYPGDSDTKYSPSFQGQVTISVDKSVSTAYLQWSSLKPSDSAVYFCARHDVGYCSSSNCAKWPEYFQHWGQGTLVTVSSGGGGSGGGGSGGGGSQSVLTQPPSVSAAPGQKVTISCSGSSSNIGNNYVSWYQQLPGTAPKLLIYGHTNRPAGVPDRFSGSKSGTSASLAISGFRSEDEADYYCASWDYTLSGWVFGGGTKLTVLG | 1 | 0.00092 | 1 | 0.00076 | 1 | 0.00019 | t1/2 calculated from koff [1]: 0.217 h
C6ML3-5 (scFv) scFv: QVQLLQSGAELKKPGESLKISCKGSGYSFTSYWIAWVRQMPGKGLEYMGLIYPGDSDTKYSPSFQGQVTISVDKSVSTAYLQWSSLKPSDSAVYFCARHDVGYCSSSNCAKWPEYFQHWGQGTLVTVSSGGGGSGGGGSGGGGSQSVLTQPPSVSAAPGQKVTISCSGSSSNIGNNYVSWYQQLPGTAPKLLIYGHTNRPAGVPDRFSGSKSGTSASLAISGFRSEDEADYYCAAWDYSLSGWVFGGGTKLTVLG | 3.2 | – | – | – | 3.7 | – | –
C6ML3-7 (scFv) scFv: QVQLLQSGAELKKPGESLKISCKGSGYSFTSYWIAWVRQMPGKGLEYMGLIYPGDSDTKYSPSFQGQVTISVDKSVSTAYLQWSSLKPSDSAVYFCARHDVGYCSSSNCAKWPEYFQHWGQGTLVTVSSGGGGSGGGGSGGGGSQSVLTQPPSVSAAPGQKVTISCSGSSSNIGNNYVSWYQQLPGTAPKLLIYGHTNRPAGVPDRFSGSKSGTSASLAISGFRSEDEADYYCAAWDYAVSGWVFGGGTKLTVLG | 2.6 | 0.0017 | – | – | 2.6 | 0.0017 | –
C6ML3-6 (scFv) scFv: QVQLLQSGAELKKPGESLKISCKGSGYSFTSYWIAWVRQMPGKGLEYMGLIYPGDSDTKYSPSFQGQVTISVDKSVSTAYLQWSSLKPSDSAVYFCARHDVGYCSSSNCAKWPEYFQHWGQGTLVTVSSGGGGSGGGGSGGGGSQSVLTQPPSVSAAPGQKVTISCSGSSSNIGNNYVSWYQQLPGTAPKLLIYGHTNRPAGVPDRFSGSKSGTSASLAISGFRSEDEADYYCASWDYSLSGWVFGGGTKLTVLG | 3.2 | 0.0019 | – | – | 3.2 | 0.0019 | –
C6MH3-D2 (scFv, C6ML3-9 sFv, VH CDR3 library D mutant) scFv: QVQLLQSGAELKKPGESLKISCKGSGYSFTSYWIAWVRQMPGKGLEYMGLIYPGDSDTKYSPSFQGQVTISVDKSVSTAYLQWSSLKPSDSAVYFCARHDVGYCSSSNCAKWPEWLGVWGQGTLVTVSSGGGGSGGGGSGGGGSQSVLTQPPSVSAAPGQKVTISCSGSSSNIGNNYVSWYQQLPGTAPKLLIYGHTNRPAGVPDRFSGSKSGTSASLAISGFRSEDEADYYCASWDYTLSGWVFGGGTKLTVLG | – | – | 0.16 | 0.0002 | – | – | fold change of Kd against wt C6ML3-9 [1]: 7 fold
C6ML3-13 (scFv) scFv: QVQLLQSGAELKKPGESLKISCKGSGYSFTSYWIAWVRQMPGKGLEYMGLIYPGDSDTKYSPSFQGQVTISVDKSVSTAYLQWSSLKPSDSAVYFCARHDVGYCSSSNCAKWPEYFQHWGQGTLVTVSSGGGGSGGGGSGGGGSQSVLTQPPSVSAAPGQKVTISCSGSSSNIGNNYVSWYQQLPGTAPKLLIYGHTNRPAGVPDRFSGSKSGTSASLAISGFRSEDEADYYCAAWDATLWGWVFGGGTKLTVLG | 2.4 | 0.0021 | – | – | – | – | –
C6ML3-12 (scFv, also called CML-3-12) scFv: QVQLLQSGAELKKPGESLKISCKGSGYSFTSYWIAWVRQMPGKGLEYMGLIYPGDSDTKYSPSFQGQVTISVDKSVSTAYLQWSSLKPSDSAVYFCARHDVGYCSSSNCAKWPEYFQHWGQGTLVTVSSGGGGSGGGGSGGGGSQSVLTQPPSVSAAPGQKVTISCSGSSSNIGNNYVSWYQQLPGTAPKLLIYGHTNRPAGVPDRFSGSKSGTSASLAISGFRSEDEADYYCAAWDYSRSGWVFGGGTKLTVLG | 1.6 | 0.00072 | – | – | 1.6 | 0.00072 | –
C6MH3-C4 (scFv, C6ML3-9 sFv, VH CDR3 library C mutant; also called mutant sFv K100gV) scFv: QVQLLQSGAELKKPGESLKISCKGSGYSFTSYWIAWVRQMPGKGLEYMGLIYPGDSDTKYSPSFQGQVTISVDKSVSTAYLQWSSLKPSDSAVYFCARHDVGYCSSSNCAVWPEYFQHWGQGTLVTVSSGGGGSGGGGSGGGGSQSVLTQPPSVSAAPGQKVTISCSGSSSNIGNNYVSWYQQLPGTAPKLLIYGHTNRPAGVPDRFSGSKSGTSASLAISGFRSEDEADYYCASWDYTLSGWVFGGGTKLTVLG | – | – | 0.37 | 0.0002 | – | – | fold lower Kd than wt [1]: 2.7 fold; fold lower koff than C6ML3-9 [1]: 3.8 fold
C6ML3-29 (scFv) scFv: QVQLLQSGAELKKPGESLKISCKGSGYSFTSYWIAWVRQMPGKGLEYMGLIYPGDSDTKYSPSFQGQVTISVDKSVSTAYLQWSSLKPSDSAVYFCARHDVGYCSSSNCAKWPEYFQHWGQGTLVTVSSGGGGSGGGGSGGGGSQSVLTQPPSVSAAPGQKVTISCSGSSSNIGNNYVSWYQQLPGTAPKLLIYGHTNRPAGVPDRFSGSKSGTSASLAISGFRSEDEADYYCAAWDGTLWGWVFGGGTKLTVLG | 2.7 | 0.0022 | – | – | 1.7 | 0.0022 | –
C6ML3-23 (scFv) scFv: QVQLLQSGAELKKPGESLKISCKGSGYSFTSYWIAWVRQMPGKGLEYMGLIYPGDSDTKYSPSFQGQVTISVDKSVSTAYLQWSSLKPSDSAVYFCARHDVGYCSSSNCAKWPEYFQHWGQGTLVTVSSGGGGSGGGGSGGGGSQSVLTQPPSVSAAPGQKVTISCSGSSSNIGNNYVSWYQQLPGTAPKLLIYGHTNRPAGVPDRFSGSKSGTSASLAISGFRSEDEADYYCASWDHSLWGWVFGGGTKLTVLG | 1.5 | 0.0017 | – | – | 1.5 | 0.001 | –
C6ML3-15 (scFv, also called C6M13-15) scFv: QVQLLQSGAELKKPGESLKISCKGSGYSFTSYWIAWVRQMPGKGLEYMGLIYPGDSDTKYSPSFQGQVTISVDKSVSTAYLQWSSLKPSDSAVYFCARHDVGYCSSSNCAKWPEYFQHWGQGTLVTVSSGGGGSGGGGSGGGGSQSVLTQPPSVSAAPGQKVTISCSGSSSNIGNNYVSWYQQLPGTAPKLLIYGHTNRPAGVPDRFSGSKSGTSASLAISGFRSEDEADYYCAAWDRPLWGWVFGGGTKLTVLG | 2.2 | – | – | – | 2.2 | – | –
C6MH3-B47 (scFv, C6ML3-9 sFv, VH CDR3 library B mutant) scFv: QVQLLQSGAELKKPGESLKISCKGSGYSFTSYWIAWVRQMPGKGLEYMGLIYPGDSDTKYSPSFQGQVTISVDKSVSTAYLQWSSLKPSDSAVYFCARHDVGYCTDRSCAKWPEYFQHWGQGTLVTVSSGGGGSGGGGSGGGGSQSVLTQPPSVSAAPGQKVTISCSGSSSNIGNNYVSWYQQLPGTAPKLLIYGHTNRPAGVPDRFSGSKSGTSASLAISGFRSEDEADYYCASWDYTLSGWVFGGGTKLTVLG | – | – | 0.11 | 7.5e-05 | – | – | fold lower Kd than C6ML3-9 [1]: 9 fold; fold lower Kd than C6.5 [1]: 145 fold; fold lower koff than C6ML3-9 [1]: 10 fold; fold lower koff than C6.5 [1]: 84 fold
C6ML3-14 (scFv) scFv: QVQLLQSGAELKKPGESLKISCKGSGYSFTSYWIAWVRQMPGKGLEYMGLIYPGDSDTKYSPSFQGQVTISVDKSVSTAYLQWSSLKPSDSAVYFCARHDVGYCSSSNCAKWPEYFQHWGQGTLVTVSSGGGGSGGGGSGGGGSQSVLTQPPSVSAAPGQKVTISCSGSSSNIGNNYVSWYQQLPGTAPKLLIYGHTNRPAGVPDRFSGSKSGTSASLAISGFRSEDEADYYCAAWDDPLWGWVFGGGTKLTVLG | 1 | 0.00077 | – | – | 1.1 | 0.00076 | –
C6ML3-19 (scFv) scFv: QVQLLQSGAELKKPGESLKISCKGSGYSFTSYWIAWVRQMPGKGLEYMGLIYPGDSDTKYSPSFQGQVTISVDKSVSTAYLQWSSLKPSDSAVYFCARHDVGYCSSSNCAKWPEYFQHWGQGTLVTVSSGGGGSGGGGSGGGGSQSVLTQPPSVSAAPGQKVTISCSGSSSNIGNNYVSWYQQLPGTAPKLLIYGHTNRPAGVPDRFSGSKSGTSASLAISGFRSEDEADYYCASWDRPLWGWVFGGGTKLTVLG | 1.5 | 0.001 | – | – | 1.5 | 0.001 | –
C6MH3-B1 (scFv, C6ML3-9 sFv, VH CDR3 library B mutant; also called CH3-B1) scFv: QVQLLQSGAELKKPGESLKISCKGSGYSFTSYWIAWVRQMPGKGLEYMGLIYPGDSDTKYSPSFQGQVTISVDKSVSTAYLQWSSLKPSDSAVYFCARHDVGYCTDRTCAKWPEYFQHWGQGTLVTVSSGGGGSGGGGSGGGGSQSVLTQPPSVSAAPGQKVTISCSGSSSNIGNNYVSWYQQLPGTAPKLLIYGHTNRPAGVPDRFSGSKSGTSASLAISGFRSEDEADYYCASWDYTLSGWVFGGGTKLTVLG | – | – | 0.16 | 6.7e-05 | – | – | Kd [1]: 0.12 nM; koff [1]: 6e-05 s⁻¹; t1/2 calculated from koff [1]: 2.25 h
